Measurements reported in article PMC5389741 (Molecular cell, 2017).
Numbering of substitutions follows the chain as printed. Numbers in names are those of the source.

B1: His-PGK1 acetylated by Flag-ARD1 and Ac-CoA in vitro (enzyme, human)
chain: MSLSNKLTLDKLDVKGKRVVMRVDFNVPMKNNQITNNQRIKAAVPSIKFCLDNGAKSVVLMSHLGRPDGVPMPDKYSLEPVAVELKSLLGKDVLFLKDCVGPEVEKACANPAAGSVILLENLRFHVEEEGKGKDASGNKVKAEPAKIEAFRASLSKLGDVYVNDAFGTAHRAHSSMVGVNLPQKAGGFLMKKELNYFAKALESPERPFLAILGGAKVADKIQLINNMLDKVNEMIIGGGMAFTFLKVLNNMEIGTSLFDEEGAKIVKDLMSKAEKNGVKITLPVDFVTADKFDENAKTGQATVASGIPAGWMGLDCGPESSKKYAEAVTRAKQIVWNGPVGVFEWEAFARGTKALMDEVVKATSRGCITIIGGGDTATCCAKWNTEDKVSHVSTGGGASLELLEGKVLPGVDALSNI
modifications: acetyl-lysine at K388 (by ARD1 in vitro)
B2: GST-ARD1 (wild type) (enzyme, human, UniProt P41227 1-235, looked up)
chain: MNIRNARPEDLMNMQHCNLLCLPENYQMKYYFYHGLSWPQLSYIAEDENGKIVGYVLAKMEEDPDDVPHGHITSLAVKRSHRRLGLAQKLMDQASRAMIENFNAKYVSLHVRKSNRAALHLYSNTLNFQISEVEPKYYADGEDAYAMKRDLTQMADELRRHLELKEKGRHVVLGAIENKVESKGNSPPSSGEACREEKGLAAEDSGGDSKDLSEVSETTESTDVKDSSEASDSAS
B3: GST-ARD1 S228A (enzyme, human, UniProt P41227 1-235, looked up)
chain: B2 chain with S228A

Columns and labels:
GST-Beclin1 = GST-Beclin1 (human, UniProt Q14457 1-450); assay: pull-down
GST-Beclin1, sequence (Q14457 whole entry): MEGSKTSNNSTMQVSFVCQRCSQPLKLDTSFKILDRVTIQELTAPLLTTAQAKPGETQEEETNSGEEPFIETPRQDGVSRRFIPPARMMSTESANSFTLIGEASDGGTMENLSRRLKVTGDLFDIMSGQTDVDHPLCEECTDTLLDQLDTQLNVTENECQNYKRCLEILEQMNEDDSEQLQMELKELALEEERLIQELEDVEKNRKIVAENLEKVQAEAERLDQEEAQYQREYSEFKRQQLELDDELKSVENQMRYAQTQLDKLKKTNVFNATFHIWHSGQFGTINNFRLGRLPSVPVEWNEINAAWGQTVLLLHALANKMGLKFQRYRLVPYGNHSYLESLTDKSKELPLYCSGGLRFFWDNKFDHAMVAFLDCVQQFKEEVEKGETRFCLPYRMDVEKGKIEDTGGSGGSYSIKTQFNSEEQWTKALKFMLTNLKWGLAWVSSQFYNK

[1] = molecular target: T1, His-PGK1 (wild type, not acetylated) (human, UniProt P00558 1-417); assay: pull-down
T1 sequence: B1 chain

| Binder | binding result (GST-Beclin1) | binding result [1] |
| --- | --- | --- |
| B1 | binds |  |
| B2 |  | binds |
| B3 |  | binds |
